Assay in all cases: cryo-EM structure
For one experiment, the target named is T1, Pol III subunit C160 (S. cerevisiae, UniProt P04051 1-1460).
T1 sequence (looked up): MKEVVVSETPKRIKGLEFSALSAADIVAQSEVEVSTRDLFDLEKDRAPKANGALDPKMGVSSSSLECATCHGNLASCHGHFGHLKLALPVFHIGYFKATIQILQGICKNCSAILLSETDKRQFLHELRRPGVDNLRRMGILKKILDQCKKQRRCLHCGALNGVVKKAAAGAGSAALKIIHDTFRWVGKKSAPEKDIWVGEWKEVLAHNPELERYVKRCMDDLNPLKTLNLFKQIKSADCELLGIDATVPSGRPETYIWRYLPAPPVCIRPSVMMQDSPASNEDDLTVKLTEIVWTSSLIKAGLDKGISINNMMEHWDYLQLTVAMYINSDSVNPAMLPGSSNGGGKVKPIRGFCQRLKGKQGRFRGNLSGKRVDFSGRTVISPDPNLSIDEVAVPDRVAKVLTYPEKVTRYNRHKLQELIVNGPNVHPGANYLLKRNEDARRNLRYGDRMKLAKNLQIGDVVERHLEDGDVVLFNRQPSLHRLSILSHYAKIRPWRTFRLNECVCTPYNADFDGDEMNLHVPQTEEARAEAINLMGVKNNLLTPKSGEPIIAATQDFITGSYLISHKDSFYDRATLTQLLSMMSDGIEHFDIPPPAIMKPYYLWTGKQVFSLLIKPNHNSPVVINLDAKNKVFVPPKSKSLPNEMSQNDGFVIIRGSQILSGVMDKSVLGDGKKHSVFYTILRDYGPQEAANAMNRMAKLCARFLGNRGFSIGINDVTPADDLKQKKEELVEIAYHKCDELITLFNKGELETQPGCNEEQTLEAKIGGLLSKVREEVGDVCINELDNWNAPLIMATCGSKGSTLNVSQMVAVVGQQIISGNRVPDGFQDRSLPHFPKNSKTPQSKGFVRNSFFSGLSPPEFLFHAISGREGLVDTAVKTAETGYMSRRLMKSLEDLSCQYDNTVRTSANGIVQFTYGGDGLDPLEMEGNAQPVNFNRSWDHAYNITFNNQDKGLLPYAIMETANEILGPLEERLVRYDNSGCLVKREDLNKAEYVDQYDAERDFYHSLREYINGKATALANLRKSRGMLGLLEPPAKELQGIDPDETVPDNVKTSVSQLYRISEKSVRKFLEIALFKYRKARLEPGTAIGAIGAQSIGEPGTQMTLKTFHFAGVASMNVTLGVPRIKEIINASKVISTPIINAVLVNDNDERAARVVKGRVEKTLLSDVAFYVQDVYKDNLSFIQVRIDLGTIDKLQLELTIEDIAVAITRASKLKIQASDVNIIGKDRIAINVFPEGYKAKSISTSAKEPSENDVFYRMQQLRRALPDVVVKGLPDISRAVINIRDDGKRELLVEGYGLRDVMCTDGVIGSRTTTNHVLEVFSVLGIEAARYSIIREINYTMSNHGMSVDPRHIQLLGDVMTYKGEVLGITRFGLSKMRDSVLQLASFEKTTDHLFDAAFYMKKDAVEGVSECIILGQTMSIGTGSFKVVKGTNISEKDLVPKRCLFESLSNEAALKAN

In a further experiment the target is T2, subunit ABC27 (S. cerevisiae, UniProt P20434 1-215).
T2 sequence (looked up): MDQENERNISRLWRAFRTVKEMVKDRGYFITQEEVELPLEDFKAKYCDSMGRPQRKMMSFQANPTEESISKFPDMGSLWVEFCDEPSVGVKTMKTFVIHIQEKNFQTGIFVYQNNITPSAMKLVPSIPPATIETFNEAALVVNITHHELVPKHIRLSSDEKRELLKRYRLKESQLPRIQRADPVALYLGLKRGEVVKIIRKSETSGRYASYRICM

For a further experiment, the target named is T3, Pol III subunit C128 (S. cerevisiae, UniProt P22276 1-1149).
T3 sequence (looked up): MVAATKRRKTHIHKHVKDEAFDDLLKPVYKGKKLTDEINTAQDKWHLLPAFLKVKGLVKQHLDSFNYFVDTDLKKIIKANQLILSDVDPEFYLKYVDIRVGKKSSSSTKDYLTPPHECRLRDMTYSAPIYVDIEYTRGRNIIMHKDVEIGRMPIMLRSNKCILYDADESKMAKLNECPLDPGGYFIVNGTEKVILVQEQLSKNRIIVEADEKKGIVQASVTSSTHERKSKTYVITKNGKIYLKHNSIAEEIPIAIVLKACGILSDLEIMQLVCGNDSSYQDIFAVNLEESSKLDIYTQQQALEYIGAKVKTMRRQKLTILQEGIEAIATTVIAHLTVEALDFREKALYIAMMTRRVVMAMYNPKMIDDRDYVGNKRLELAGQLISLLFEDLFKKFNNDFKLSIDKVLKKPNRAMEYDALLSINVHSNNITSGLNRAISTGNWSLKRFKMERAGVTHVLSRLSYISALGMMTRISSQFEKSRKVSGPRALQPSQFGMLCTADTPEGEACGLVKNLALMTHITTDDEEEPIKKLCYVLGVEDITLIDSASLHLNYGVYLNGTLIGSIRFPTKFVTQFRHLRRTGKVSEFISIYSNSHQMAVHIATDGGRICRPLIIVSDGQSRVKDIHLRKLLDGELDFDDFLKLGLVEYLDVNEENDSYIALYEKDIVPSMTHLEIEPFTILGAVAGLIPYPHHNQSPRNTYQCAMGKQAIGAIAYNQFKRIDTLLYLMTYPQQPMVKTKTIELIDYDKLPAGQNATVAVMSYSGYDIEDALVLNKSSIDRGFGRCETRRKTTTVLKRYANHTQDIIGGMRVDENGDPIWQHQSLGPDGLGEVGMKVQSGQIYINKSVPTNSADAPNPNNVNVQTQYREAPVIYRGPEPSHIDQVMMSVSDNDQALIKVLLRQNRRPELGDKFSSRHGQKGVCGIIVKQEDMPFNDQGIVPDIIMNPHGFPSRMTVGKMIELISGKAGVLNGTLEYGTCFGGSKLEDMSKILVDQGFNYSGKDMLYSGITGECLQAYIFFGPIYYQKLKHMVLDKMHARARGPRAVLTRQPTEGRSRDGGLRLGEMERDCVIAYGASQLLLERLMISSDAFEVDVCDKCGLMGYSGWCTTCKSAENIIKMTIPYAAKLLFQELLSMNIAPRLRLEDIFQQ

A further experiment deals with T4, Pol III subunit C53 (S. cerevisiae, UniProt P25441 1-422).
T4 sequence (looked up): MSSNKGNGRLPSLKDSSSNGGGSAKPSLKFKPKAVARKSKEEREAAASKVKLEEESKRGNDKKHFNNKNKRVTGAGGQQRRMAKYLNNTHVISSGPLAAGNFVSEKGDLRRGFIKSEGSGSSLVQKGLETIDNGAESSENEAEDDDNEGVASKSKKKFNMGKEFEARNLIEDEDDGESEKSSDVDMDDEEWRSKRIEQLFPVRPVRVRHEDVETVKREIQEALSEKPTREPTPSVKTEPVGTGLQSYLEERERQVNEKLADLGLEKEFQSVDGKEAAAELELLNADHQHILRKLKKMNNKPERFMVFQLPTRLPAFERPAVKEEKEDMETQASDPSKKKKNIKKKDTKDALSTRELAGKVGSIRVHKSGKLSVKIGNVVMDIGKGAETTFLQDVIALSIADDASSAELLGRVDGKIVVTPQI

B1: Pol III subunit C11 (natural protein, S. cerevisiae, UniProt Q04307 1-110, looked up)
chain: MLSFCPSCNNMLLITSGDSGVYTLACRSCPYEFPIEGIEIYDRKKLPRKEVDDVLGGGWDNVDQTKTQCPNYDTCGGESAYFFQLQIRSADEPMTTFYKCVNCGHRWKEN
For the molecule B1, the binding result with Pol III subunit C160 and with subunit ABC27 was “binds” in each case.

B2: C53-C37 heterodimer (complex, S. cerevisiae)
chain 1: T4 sequence (looked up)
chain 2: MSIDNKLFVTEEDEEDRTQDRADVEDESNDIDMIADENGTNSAIANEQEEKSEEVKAEDDTGEEEEDDPVIEEFPLKISGEEESLHVFQYANRPRLVGRKPAEHPFISAARYKPKSHLWEIDIPLDEQAFYNKDKAESEWNGVNVQTLKGVGVENNGQYAAFVKDMQVYLVPIERVAQLKPFFKYIDDANVTRKQEDARRNPNPSSQRAQVVTMSVKSVNDPSQNRLTGSLLAHKVADEEANIELTWAEGTFEQFKDTIVKEAEDKTLVALEKQEDYIDNLV
Regarding B2, the binding result in the experiment with Pol III subunit C128 is listed as “binds”.

B3: Pol III subunit C37 (natural protein, S. cerevisiae, UniProt P36121 1-282, looked up)
chain: B2 chain 2
As to B3, the binding result with Pol III subunit C53 and with Pol III subunit C128 was “binds” each time.
